From patent US20170355757A1 (Regeneron, published 2017) come the findings set out here.

One assay has as its target T1, hC5a (human, UniProt P01031 678-751).
T1 sequence (looked up): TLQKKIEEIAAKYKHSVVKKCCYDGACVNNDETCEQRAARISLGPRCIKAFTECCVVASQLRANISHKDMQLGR
In words: cell-based or functional assay.

In assay [1] the target is T2, human C5 (human, UniProt P01031 19-1676).
T2 construct: native C5 purified from plasma (EMD) in the Biacore and Octet assays, C5 of normal human serum in the CDC and hemolysis assays; two chains (alpha and beta); also called hC5; complement factor 5
In words: SPR (Biacore), mAb captured, dissociation of human C5 at pH7.4 vs pH6.0, 37°C. The method in brief:
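Anti-C5 mAbs (human IgG4 Fc) captured on an amine-coupled mouse anti-human Fc surface; recombinant C5 dissociation followed by Biacore T200 in PBS-T (0.01M phosphate, 0.15M NaCl, 0.05% Tween-20) at pH7.4 or pH6.0. Dissociative half-life (t½) calculated from kd.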
A general note: In SPR one partner is held on a chip, and binding of the other changes the refractive index at the surface.

Assay [2] addresses T2, human C5. In words: cell-based or functional assay.
Another assay addresses African green monkey C5 (African green monkey). In words: cell-based or functional assay.
The target of a further assay is human C5 R885H-mmh (human, UniProt P01031 19-1676). In words: cell-based or functional assay.
Another assay concerns the target human C5 R885C-mmh (human, UniProt P01031 19-1676). In words: cell-based or functional assay.
Assay [3] addresses T2, human C5. In words: cell-based or functional assay. This is another data set of the same source.

B1: H2aM11684N (antibody, mouse IgG2, V domains shown)
VH: QVQLQESGPGLVKPSQTLSLTCTVSGGSISSGAYHWSWIRQHPGKGLEWIGYIYYNGDTYYNPSLKSRVTISVDTSKNQFFLKVTSVTAADTAMYYCAGEKQLTAFDIWGQGTLVTVSS
VL: VIQMTQSPSSLSASVGDRVTITCRASQDINNFLNWYQQKLGKAPKLLISDASNLQTGVPSRFSGSGSGTDFTFTISSLQPEDIAAYYCQQYDHFPYTFGQGTRLENN
For B1, the “IC50, inhibition of 500 pM hC5a in HEK293/Gα16/hC5aR1/NFAT-luc cells” value in the assay with hC5a amounted to 3.5e-11 M.

B2: H2aM11682N (antibody, mouse IgG2, V domains shown)
VH: QEQLVQSGAEVKKPGASVKVSCKASGYTFTGYYIHWVRQAPGLGLEWMGWINPNSGGTKYAQKFQGRVTMTRDTSINTAYMELKRLKSDDSAVYYCARDAPPHDVFDIWGQGTLVTVSS
VL: DIQMTQSPSSLSASVGDRVTITCRASQGIRNDLGWYQQKPGKAPKRLIYAASSLQIGVPSRFSGSGSGTEFTLTISSLQPEDFATYYCLQHNSYPLTFGGGTKVEIK
B2: in the assay with hC5a, the “IC50, inhibition of 500 pM hC5a in HEK293/Gα16/hC5aR1/NFAT-luc cells” value was 4.6e-10 M.

B3: H2aM11694N (antibody, mouse IgG2, V domains shown)
VH: EVQLVESGGGVVRPGGSLRLSCAASGFTFDDYGMTWVRQAPGKGLEWVSGINWNGDSTEYSDSVKGRFTISRDNAKNSLYLQMNSLRAEDTAFYHCARENNWNFYFDYWGQGTLVTVSS
VL: EIVMTQSPATLSVSRGERATLSCRASQSVSSNLAWYQQKLGQAPRLLIYGASTRATGIPARFSGSGSGTEFTLTISSLQSEDFAVYYCQQYNNWPWTFGQGTKVEIK
As to B3, the “IC50, inhibition of 500 pM hC5a in HEK293/Gα16/hC5aR1/NFAT-luc cells” value with hC5a came to 1.4e-10 M.

B4: H4H12166P10 (antibody, human IgG4, V domains shown)
VH: QVQLQESGPGLVKPSETLSLTCTVSGDSVSSSYWTWIRQPPGKGLEWIGYIYYSGSSNYNPSLKSRATISVDTSKNQFSLKLSSVTAADTAVYYCAREGNVDTTMIHDYWGQGTLVTVSS
VL: AIQMTQSPSSLSASVGDRVTITCRASQGIRNDLGWYQQKPGKAPKLLIYAASSLQSGVPSRFAGRGSGTDFTLTISSLQPEDFATYYCLQDFNYPWHFGQGTKVEIK
notes: histidine-mutated CDR variant of H4H12166P; human IgG4 (S108P)
On to B4, for which, in the assay with human C5 [1], the “t½ Ratio pH7.4/pH6.0” value stood at 19. Besides, in the assay with human C5 [2], the “Human CP % Max Inhibition, hemolysis assay, 5% NHS” value turned out to be 74% and the “Human CP IC50, hemolysis assay, 5% NHS” value was 44.4 nM. Further, in the assay with African green monkey C5, the “IC50, inhibition of CDC of Daudi cells, 1.66% African Green monkey serum, 10 nM anti-CD20 antibody” value is above 100 nM and the “Max % Inhibition of CDC of Daudi cells, 1.66% African Green monkey serum, 10 nM anti-CD20 antibody” value was determined as 34%. For the same molecule, the “IC50, inhibition of CDC of Daudi cells, C5 depleted human serum and 6.6 nM C5 Variant R885H, 7 nM anti-CD20 antibody” value with human C5 R885H-mmh stood at 7 nM. Also, in the assay with human C5 R885C-mmh, the “IC50, inhibition of CDC of Daudi cells, C5 depleted human serum and 6.6 nM C5 Variant R885C, 30 nM anti-CD20 antibody” value amounted to 3.5 nM. Further, the “IC50, inhibition of CDC of Daudi cells, 1.66% human serum, 2 nM anti-CD20 antibody” value with human C5 [3] stood at 12 nM.

B5: H2aM11695N (antibody, mouse IgG2, V domains shown)
VH: QVHLVQSGAEVKKPGASVKVSCKVSGNTLTELSMHWVRQAPGKGLEWMGGFDPEDGDTIYSQKFQGRVTLTEDTSTDTAYMELSSLRSEDTAVYYCSTVGGPTSDCWGQGTLVTVSS
VL: DIQMTQSPSSLSASVGDRVTITCQASQDISNYLNWYQQKPGKAPKVLIFDASNLEPGVPSRFSGSGSGTDFTFTIISLQPEDIATYYCQQYDNLPITFGQGTRLDIK
In the case of B5, the “IC50, inhibition of 500 pM hC5a in HEK293/Gα16/hC5aR1/NFAT-luc cells” value with hC5a was 4.2e-11 M.
